Laboratory results as given in paper PMC9270970.

Target: SynNotch receptor (CD8a signal-Myc-LaG17-Notch1 minimal transmembrane core-tTA) (mouse) (UniProt Q01705)
UniProt Q01705, sequence (Q01705 whole entry): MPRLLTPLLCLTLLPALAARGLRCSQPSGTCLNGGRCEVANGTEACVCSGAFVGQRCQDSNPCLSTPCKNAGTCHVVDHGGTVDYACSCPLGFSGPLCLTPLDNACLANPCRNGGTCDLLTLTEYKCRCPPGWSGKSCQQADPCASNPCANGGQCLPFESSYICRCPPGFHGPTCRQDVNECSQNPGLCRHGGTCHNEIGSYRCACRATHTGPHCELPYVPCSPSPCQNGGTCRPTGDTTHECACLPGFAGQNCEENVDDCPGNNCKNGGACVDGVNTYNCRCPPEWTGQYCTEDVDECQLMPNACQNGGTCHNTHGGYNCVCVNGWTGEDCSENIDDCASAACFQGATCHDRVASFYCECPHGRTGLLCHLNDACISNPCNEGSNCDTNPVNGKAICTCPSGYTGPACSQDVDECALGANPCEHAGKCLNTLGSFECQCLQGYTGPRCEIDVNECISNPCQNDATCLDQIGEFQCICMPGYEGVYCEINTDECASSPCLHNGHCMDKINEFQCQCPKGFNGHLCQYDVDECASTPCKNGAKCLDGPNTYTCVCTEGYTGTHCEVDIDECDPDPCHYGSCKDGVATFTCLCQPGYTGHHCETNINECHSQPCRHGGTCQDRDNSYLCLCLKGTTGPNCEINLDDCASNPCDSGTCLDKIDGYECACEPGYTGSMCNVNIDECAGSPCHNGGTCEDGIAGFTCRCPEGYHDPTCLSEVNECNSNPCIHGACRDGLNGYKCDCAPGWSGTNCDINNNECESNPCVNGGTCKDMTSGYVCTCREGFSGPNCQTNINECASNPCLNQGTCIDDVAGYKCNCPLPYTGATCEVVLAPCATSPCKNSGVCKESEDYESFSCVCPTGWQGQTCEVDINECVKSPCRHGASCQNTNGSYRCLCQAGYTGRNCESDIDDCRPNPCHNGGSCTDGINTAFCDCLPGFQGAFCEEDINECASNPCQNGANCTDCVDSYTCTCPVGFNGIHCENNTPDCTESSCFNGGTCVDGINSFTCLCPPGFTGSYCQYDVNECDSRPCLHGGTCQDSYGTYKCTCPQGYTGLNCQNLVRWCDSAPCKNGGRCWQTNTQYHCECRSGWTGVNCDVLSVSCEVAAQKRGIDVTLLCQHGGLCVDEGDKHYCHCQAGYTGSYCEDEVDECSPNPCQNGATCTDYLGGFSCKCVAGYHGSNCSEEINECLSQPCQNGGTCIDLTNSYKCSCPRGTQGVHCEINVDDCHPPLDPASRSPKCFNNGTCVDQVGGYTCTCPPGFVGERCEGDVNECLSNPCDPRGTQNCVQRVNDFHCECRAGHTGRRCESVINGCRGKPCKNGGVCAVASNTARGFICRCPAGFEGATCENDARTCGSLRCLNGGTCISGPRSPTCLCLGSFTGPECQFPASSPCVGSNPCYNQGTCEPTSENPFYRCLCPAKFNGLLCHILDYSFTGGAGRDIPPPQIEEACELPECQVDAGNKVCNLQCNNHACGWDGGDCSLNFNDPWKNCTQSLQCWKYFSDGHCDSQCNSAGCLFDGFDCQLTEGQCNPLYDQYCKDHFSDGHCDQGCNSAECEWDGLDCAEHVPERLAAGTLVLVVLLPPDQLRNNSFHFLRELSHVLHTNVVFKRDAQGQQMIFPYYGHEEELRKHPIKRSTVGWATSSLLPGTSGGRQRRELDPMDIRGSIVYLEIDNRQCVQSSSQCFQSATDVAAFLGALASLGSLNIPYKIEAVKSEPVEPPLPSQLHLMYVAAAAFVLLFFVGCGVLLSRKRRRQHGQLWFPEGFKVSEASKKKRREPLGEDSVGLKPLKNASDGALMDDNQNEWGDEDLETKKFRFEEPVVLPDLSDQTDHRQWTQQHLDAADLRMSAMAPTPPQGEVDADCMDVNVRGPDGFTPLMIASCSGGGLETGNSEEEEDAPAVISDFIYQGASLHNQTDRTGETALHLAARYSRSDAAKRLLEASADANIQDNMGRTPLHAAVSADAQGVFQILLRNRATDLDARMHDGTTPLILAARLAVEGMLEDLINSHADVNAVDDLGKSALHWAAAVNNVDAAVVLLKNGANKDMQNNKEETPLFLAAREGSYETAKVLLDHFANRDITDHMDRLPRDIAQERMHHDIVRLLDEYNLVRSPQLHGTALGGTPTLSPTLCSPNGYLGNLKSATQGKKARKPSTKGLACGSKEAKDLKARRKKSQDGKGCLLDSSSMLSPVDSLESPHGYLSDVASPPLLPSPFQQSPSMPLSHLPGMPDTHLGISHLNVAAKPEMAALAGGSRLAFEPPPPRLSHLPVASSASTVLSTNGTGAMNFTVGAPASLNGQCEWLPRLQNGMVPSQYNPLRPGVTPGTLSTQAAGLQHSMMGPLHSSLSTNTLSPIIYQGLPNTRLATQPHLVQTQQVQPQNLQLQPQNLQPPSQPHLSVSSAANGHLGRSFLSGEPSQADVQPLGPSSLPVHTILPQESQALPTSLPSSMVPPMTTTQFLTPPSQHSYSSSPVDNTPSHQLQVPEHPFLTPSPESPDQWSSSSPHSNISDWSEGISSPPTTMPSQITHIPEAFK

Substance: membrane-tethered extracellular EGFP (IgGK signal-EGFP-PDGFRB TMD) (ligand)
- percentage of STC receiver cells that induce mCherry after 24 h of co-culture with different proportions of sender cells (20% to 90% sender cells): > 90%
